Laboratory results taken from the DeepSol protein solubility set.

assay: soluble on expression in E. coli; label from the status in PepcDB or PDB records

Sequence	soluble on expression in E. coli
TDQFGMIGLLTFIRAAETDPGMVHLALGSDLTTLGLNLNSPENLYPKFASPWASSPCRPQDIDFHVPSEYLTNIHIRDKLAAIKLGRYGEDLLFYLYYMNGGDVLQLLAAVELFNRDWRYHKEERVWITRAPGMEPTMKTNTYERGTYYFFDCLNWRKVAKEFHLEYDKLEERPHLPSTFNYNPAQQAF	soluble
MGSDKIHHHHHHMHDYYQLVTVADLPQDNRQILDTLTAIGAGKLPNDLRLLNYYRSIPVNYGATVESVERGSVELTVNQQQAIVMQLEKQVFLKSGHFPKDVLAAVTYVNIDKSVAILANFAYAVIRSERRQFVRVEVKDKIEASFSGDGFTVAGLLNDISLGGVAISATIPTHPDAGIKGKVTLRLPGGPFEMPAQVLRVIPAYYTDLCIIEIQPDNRTEKGISQYIFQRQVEIIRELKDSIF	not soluble
MFTGSIVALVTPMDEKGNVSRSCLKKLIDYHVANGTSAIVSVGTTGESATLSHDEHGDVVMMTLELADGRIPVIAGTGANATAEAISLTQRFNDSGIVGCLTVTPYYNRPTQEGLFQHFKAIAEHTDLPQILYNVPSRTGCDMLPETVGRLAEIKNIIAIKEATGNLTRVHQIKELVSDDFILLSGDDASALDFMQLGGHGVISVTANVAAREMADMCKLAAEGQFAEARAINQRLMPLHNKLFVEPNPIPVKWACKALGLVATDTLRLPMTPITDHGRDIVKAALQHAGLL	not soluble
MTRLLDATWEKELLAASARLSQAQEENFLDLVDAAEGRIDETIARVLLRTFSAKDDYGTQERVVSVLSTGADQVVIDAIVEEMPRLALEAPEWAQTLLGTEVEFRPDLTARALSQAPTICRIAAENILKNEDFQSQYPNAALVLGQLDA	not soluble
MTQSNPFQQYGITSGLAAAAAAKASVLAAMGTISDYVGVPTPIGLRIEVKVEMMKQIDARSGIAAVRKFSGDNPDTLNGALFESRAVIRDDGLINIFAGEGIGVAVSDGLPVRRGDPAINPVARMMIENAVREVSGSAGFDVYISVPGGEDLARDTMNPRVGISGGISILGTTGIEEPVSGPDYEAHIEYLLQTGRCVSTVAVMCPGNTAMRFAESYLRLHPASFILTGDRIGSAIEMAIEKGYREIVVFGLPGKLVKMAAGVMNTHSRIADARFETIAAYAALNGADRDTISKILSSNTVESAFAVLRSIGLLDSVAGAIASRIVERLRSPVWQIRRILLRHDRFRRQAIRVSPVAGHIETGE	not soluble
MSLRKLYTKELSVTGSAINHHRIFDSSAHFKGALTIKILPENTAMFNPLHESYCLPMDTNLFKINSIDVPIRINSTEEIEYIELEYRDLYTNSVELRSLSKKDFKIIDNPKSFLKKDQSVLKSHSNDFEEGSTIRYLAVTLQDIGFYQIKKIVDSKKLNLKIHQSHLVVPYCPIASITGTGSNDRCIGDSDNVSFEIQGVPPMKLAYSKIVNGQTFSYVDSSLQPEYFESPLQSSKSKQSFTQGELNDLKWGRNQPVNINLDSSITQDGKFAYKIDKITDGLGNVVDFTSLPEELKKREGHHHHHH	soluble
MSLDDGTGLFTIGQLARRTGLSVRTIRYWSDEGALPPVTRSSGGYRLYDAGSVARLELIRTLRELGLGLDDVREVLAGETTVAEVAATHVTALDAQIRALKVTRAVLSTVARRGSTAEEMTLMNKLARLSAAERRRILEEFADEMFRGLDTADPVIRERMRNTAVDLPDEPTPEQVDAWVELVELLQDPEFRAQMRAAAEFNAADRGHDSPAGASLWFVRRLVQLAADARQRGIAPEAPEAEEVLRELLGEADGAADRAAVLERLEATSNDRVARYRELLAVVKGGGPLPAHREEFGWVVAALRAREGHHHHHH	soluble
MGSDKIHHHHHHLLDYAGAIEEFSHALQLTPYFAEAYLQRGLAYYDSGAILKAVSDYTEALKLNPESVEAYYCRGLARVALKNLPGALEDVERAIRLNLNYAAAYNLRGMVRRKQGYVQDAIANFKKAAQLYLEQQDKENCRLCLERIKQLQPQELPVLQQSRSPNAPILSTNDYFTQLLEKAEKGDTQEALADLNWVLKADSQDAQAYCCRGVVRCKMGDYREAIADFNQALRLNFQDAIVYRNRGKARSILGDHQGAIADLNQALQMQPQDALVYIARGNAYRSTGNYLGAIQDYTQALQINPDDAQAYYNRGIAYTCLEEMQNAVEDYQRAASIFCEQEDWGNYQQVLSSLEKIQKFSPQSKKQKYNLLHQRLLQMVGGYWEIAERLIQQKQDYHPGMSDEWYLQKVIDDLERDRGR	not soluble
MARIRARGSACPSQCSCSGTTVDCSGKSLASVPTGIPTTTQVLYLYDNQITKLEPGVFDRLTQLTRLDLDNNQLTVLPAGVFDKLTQLTQLSLNDNQLKSIPRGAFDNLKSLTHIWLLNNPWDCACSDILYLSRWISQHPGLVFGYLNLDPDSARCSGTNTPVRAVTEASTSPSKCPG	soluble
MGTALAAPPLGGCAEGFEVHGGDEEGLPLPTQIDLYLVGLAPLPHHGSRQPVEPPVGHAPVWEGGVYDYSHLIAHPVLPKVGAEPGYAALLPHRLPQQPPSPVPIASRCLDQPTLPPVFCSAQLNLALAGCGWSFMLHPHHVELYTHSLPAEDLSEAWPGSPAITADQLLDVETPFRLQYALHQRRPLQGAAV	soluble
MSLADKRKHRFSVRYWLWRHTSLKRVAFCGRVAASAVASVGVRCSDGRAGFAGLQSCGSVWACPVCNAKIMARRGLELGAAVETWTKHGGRVAFMTFTVRHSRKDSLTAVWDGVASGWRRVTSGKGWTSDQLRHGVEGFVRVVEVTHGRNGWHVHLHVLVFLVGDFGDALALHRSMFGRWERGVLAAGLGTPLARAQDVQQMSAATGLDHLARYLSKAQFQGKIGHELTNSQSKTARSALSTRSTWEVLGDAANGLAKEVGLWFEWEKGSRGRRQIGWSAGLRDRLGLMVEESDDVIAAEEVGSVADTVALITGDGWRRLVGQQKLYECLRSCELGGQAGLARWLQEHGIEHELVEVDEGHHHHHH	soluble
MTSSLVLILAPLALVAIGEAAFGNSSKIFEIPGLEVMASDKYPHFTTIETVSRTKVHRHRREVIAGQIYDWNSYEIPFQIWGGDYNFQSLIRRGIRMWEDSTCLRFKENQQSRDAIRYVLEKGDSCFTEYIGRNGGHQDIIIGSECAEEYVVAHETGHALGFWHTHQRPDRDRHISINWKNVMEEATASFMPFRSMLQAFGIRQVSPRRVPYDYGSLMHYHAVAHAVKVSDFTIVPKELKYVTTMGTEKMAFLDAKVINDIYCPNACQGRNHLNCLAGGYPDPNNCNVCRCPEGLGGPDCGRLQPSPCGGEIHASDQWQTLSSPSGRDVHCYWRISVPEGSRVRFRLSDGEFPCSYGCQSYVEIKHKLDVRLTGFRSCCYRPKEDTVSESNQIFVIYHPNGRTARFSLRFRRQA	not soluble
MATNFLVGEKIWFHKFKYGDAERRFYEQMNGPVAGASLQEASMILHDIARARENIPKSLAGSLGPGASSGPSGDHSELVVRIASLEVDNQRDLAERAGEELARPLGHSPADPAHVSHAPSGAPGQEASHTSRG	soluble
MKLQSYLMGEWREGQGEGVPVRDASTGEVLARVTAEGLPVKEAVAWGREVGGKALLALGFQERGRRLRALAQYLSERKEALYRLYATTGGTRRDAWYDVDGGIGVLYAYSSLARNLPEGNLLPEDDFLPLSKDLSFQGRHVLAPKGGITVQINAFNFPVWGLLEKFAPAFLAGVPTLAKPATPTAHVAEALVRTMLESGLLPEGSLQLLVGSVGDLFDALDHRDSVFFTGSKATADRLRRHPAFLERGALFNAEADSLNPAILGEKATEEELSRLAQEIAQELVIKTGQRCTAIRRVFAPRERLKALLEATRKRLEALRLGDPREEGVDLGPLASLEQKAEVEKAVAALLEAGARVYWRHPGREDGAFFPPTLLLAEDPWPGALHQVEPFGPVATFFPYGSREEAARLAALGGGSLVATLATSDPEEARFYLLALAPYVGRLHLLNARTAASSTGHGSPLPRLLHGGPGRAGGGEELGGLLSVRRHLGRVALQADPWLLSALTGEYAKGAEKPAEVHPFRKAYEDLEVGETLTTHRRTVTEADIALFSALSWDHFYAHTDEIAARESLFGKRVAHGYFVLSAAAGLFVDPAPGPVLANYGLEGLRFLEPVGAGDTLQVRLTVKRKRPRDEKTGVVEWAAEVVNQEGKPVATYTVLTLVARKGALAKGS	soluble
KEATWVTDKPLTLKIHMHFRDKWVWDENWPVAKESFRLTNVKLQSVANKAATNSQEQFNLMMASGDLPDVVGGDNLKDKFIQYGQEGAFVPLNKLIDQYAPHIKAFFKSHPEVERAIKAPDGNIYFIPYVPDGVVARGYFIREDWLKKLNLKPPQNIDELYTVLKAFKEKDPNGNGKADEVPFIDRHPDEVFRLVNFWGARSSGSDNYMDFYIDNGRVKHPWAETAFRDGMKHVAQWYKEGLIDKEIFTRKAKAREQMFGGNLGGFTHDWFASTMTFNEGLAKTVPGFKLIPIAPPTNSKGQRWEEDSRQKVRPDGWAITVKNKNPVETIKFFDFYFSRPGRDISNFGVPGVTYDIKNGKAVFKDSVLKSPQPVNNQLYDMGAQIPIGFWQDYDYERQWTTPEAQAGIDMYVKGKYVMPGFEGVNMTREERAIYDKYWADVRTYMYEMGQAWVMGTKDVDKTWDEYQRQLKLRGLYQVLQMMQQAYDRQYKN	soluble
MSEITASRPEVVNGHTDVICSTSIRHILAVRKSTLLQIDTLIRQLAEVSAMTESIRGKTALDWAMKQDFRCGCWLMEKPETAMKAITRNLDRELWRDLMQRSGMLSLMDAQTRDTWYRSLEYDNFPEISEANILSTFEQLHQNKDEVFERGVINVFKGLSWDYKTNSPCKFGSKIIVNNLVRWDRWGFHLITGQQTDRLVDLERMLHLFSGKPIPDNRENITIRLDGHIQSVQGKERYEDEMFIIKYFKKGSAHITFKRLELIDRINDIIARYFPSVLSA	not soluble
GKITFYEDRGFQGHCYESSSDCPNLQPYFSRCNSIRVDSGCWMLYERPNYQGHQYFLRRGDYPDYQQWMGFNDSIRSCRLIPQHTGTFRMRIYERDDFRGQMSEITDDCPSLQDRFHLTEVHSLNVLEGSWVLYEMPSYRGRQYLLRPGEYRRYLDWGAMNAKVGSLRRVMDFY	soluble
MGSSHHHHHHSSGLVPRGSHMASASAAGGQQSFDLLVIGGGSGGLACAKEAAQLGKKVAVADYVEPSPRGTKWGLGGTCVNVGCIPKKLMHQAALLGGMIRDAHHYGWEVAQPVQHNWKTMAEAVQNHVKSLNWGHRVQLQDRKVKYFNIKASFVDEHTVRGVDKGGKATLLSAEHIVIATGGRPRYPTQVKGALEYGITSDDIFWLKESPGKTLVVGASYVALECAGFLTGIGLDTTVMMRSIPLRGFDQQMSSLVTEHMESHGTQFLKGCVPSHIKKLPTNQLQVTWEDHASGKEDTGTFDTVLWAIGRVPETRTLNLEKAGISTNPKNQKIIVDAQEATSVPHIYAIGDVAEGRPELTPTAIKAGKLLAQRLFGKSSTLMDYSNVPTTVFTPLEYGCVGLSEEEAVALHGQEHVEVYHAYYKPLEFTVADRDASQCYIKMVCMREPPQLVLGLHFLGPNAGEVTQGFALGIKCGASYAQVMQTVGIHPTCSEEVVKLHISKRSGLEPTVTGCCG	soluble
MAHHHHHHMATDLDSFSTYIDHLILLLAARFHAPLEVSVEELLPSSMNLSAEAQCPWELVACSVQQALRTPQTAQERLLMRHLDVHHFSASVCRERARYMQWKLQECRRRRGDKQQLVQSPAVPSAARANTSSTVAASATAAGQPCDVACTSLHNDVCSLYKLVLQSLPSTLGGTESDDDEEDAQAPTTSVQSLASASEPSSFERVHEVFMRTPAEQERDELVARARDEFLSQVQALQSVYYEKYHRWMDVPASVLDPPPASSKQPASTDGAAAALESAAPQRGSESERAALLEALGAAAAPPPRHRKQANHASSSGAADWTEKPHTLASMLHQVQLRRPLRPSAVSDDVLESLYRARAETEEAPKNLCVASGLRSCPPAASTSATPSFAGGCADTITAEAVAVAPSSSQPSSSVAAVRKDTVPPASRRGRWQIVEYDDDDDGEG	not soluble
